# Source: patent US11279751B2
# T1: human PXR-GST (Invitrogen) (human) (UniProt O75469)
# T1 sequence: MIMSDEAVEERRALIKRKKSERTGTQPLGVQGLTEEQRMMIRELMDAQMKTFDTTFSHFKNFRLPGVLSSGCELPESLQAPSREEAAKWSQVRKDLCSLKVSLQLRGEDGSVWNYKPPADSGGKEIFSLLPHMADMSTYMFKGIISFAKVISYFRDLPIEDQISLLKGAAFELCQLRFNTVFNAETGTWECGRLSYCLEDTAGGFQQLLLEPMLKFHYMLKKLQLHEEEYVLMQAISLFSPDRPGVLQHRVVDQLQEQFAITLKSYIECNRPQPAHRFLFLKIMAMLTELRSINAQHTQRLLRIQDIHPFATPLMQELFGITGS
# Target: T1, human PXR-GST (Invitrogen) (human)
# Assay: SPR (Biacore T100), Adnectin series over human PXR-GST captured by anti-GST antibody
Kd,koff,kon,Binder
7.8 nM,0.000168 s⁻¹,21500 M⁻¹ s⁻¹,Adnectin-4 (designed binder) MASTSGVSDVPRDLEVVAATPTSLLISWDAPAVTVHSYYITYQELQHHSVPQGFQVPGSKSTATISGLKPGVAYQIAVYAFTGPGLPPSDAPPIVIYYRTEGSGSHHHHHH
97.8 nM,0.00458 s⁻¹,162000 M⁻¹ s⁻¹,Adnectin-2 (designed binder) MASTSGVSDVPRDLEVVAATPTSLLISWDAPAVTVNNYRITYQPLLQGSSIQHFDVPGSKSTATISGLKPGVGYQITVYASTYTHSKAYYSLPISIYYRTEGSGSHHHHHH
1.9 nM,0.00126 s⁻¹,680000 M⁻¹ s⁻¹,Adnectin-6 (designed binder) MGVSDVPRDLEVVAATPTSLLISWSRPKGSIKYYRITYGETGGNSPVQEFTVPNSQYTATISGLKPGVDYTITVYAVYGYPYQEPHYYPISINYRTEIDKPSQHHHHHH
4.4 nM,0.000182 s⁻¹,41700 M⁻¹ s⁻¹,Adnectin-8 (designed binder) MGVSDVPRDLEVVAATPTSLLISWSQPGRYVKYYRITYGETGGNSPVQEFTVPNDTYTATISGLKPGVDYTITVYAVYGKYGPYYGYDPISINYRTEIDKPSQHHHHHH
11.4 nM,0.00119 s⁻¹,104000 M⁻¹ s⁻¹,Adnectin-1 (designed binder) MASTSGSTHYYKGTADLEVVAATPTSLLISWPPPYYVEGVTVFRITYGETGGNSPVQEFTVPYWTETATISGLKPGVDYTITVYAEMYPGSPWAGQVMDIQPISINYRTEGSGSHHHHHH
0.31 nM,8.82e-05 s⁻¹,288000 M⁻¹ s⁻¹,Adnectin-7 (designed binder) MGVSDVPRDLEVVTATPTSLLISWDGPKYYVKYYRITYGETGGNSPVQEFTVPRTDHTATISGLKPGVDYTITVYAVKGQYGPYYGSRPISINYRTEIDKPSQHHHHHH
2.5 nM,0.000378 s⁻¹,16200 M⁻¹ s⁻¹,Adnectin-3 (designed binder) MASTSGVSDVPRDLEVVAATPTSLLISWDAPAVPVSKYVIYYWPGALISSMQAFKVPGSKSTATISGLKPGVLYSIVVDALTGDGQGSYVWDPITITYRTEGSGSHHHHHH
5.4 nM,0.0027 s⁻¹,509000 M⁻¹ s⁻¹,Adnectin-5 (designed binder) MGVSDVPRDLEVVAATPTSLLISWKYPYETISYYRITYGETGGNSPVQEFTVPYYRSTATISGLKPGVDYTITVYAVEASAPYSDGGSPISINYRTEIDKPSQHHHHHH

# Target: T1, human PXR-GST (Invitrogen) (human)
# Assay: Biacore, binder at 0.5-2 µM over GST-PXR captured by anti-GST antibody
row,RU bound,Binder
1,81 RU,WS1 binder of SEQ ID NO: 49 (designed binder) MASTSGVSDVPRDLEVVAATPTSLLISWDAPAVTVHSYYITYQELQHHSVPQGFQVPGSKSTATISGLKPGVAYQIAVYAFTGPGLPPSDAPPIVIYYRTEGSGS
2,146 RU,WS1 binder of SEQ ID NO: 48 (designed binder) MASTSGVSDVPRDLEVVAATPTSLLISWDAPAVPVSKYVIYYWPGALISSMQAFKVPGSKSTATISGLKPGVLYSIVVDALTGDGQGSYVWDPITITYRTEGSGS
